In US7423021:

Key:
human thrombin (human) [1] = target: human thrombin (human) (UniProt P00734); test: cell-based or functional assay
human thrombin (human) [2] = target: human thrombin (human) (UniProt P00734); test: competitive inhibition of human thrombin hydrolysis of the fluorogenic substrate Tos-Gly-Pro-Arg-AMC, Hanes analysis

| inhibition of the amidase activity of thrombin at 1 µM peptide (human thrombin (human) [1]) [%] | inhibition of the amidase activity of thrombin at 250 nM peptide (human thrombin (human) [1]) [%] | other results | Substance |
| --- | --- | --- | --- |
| 63 | – | – | N-acetyl-L-Trp-L-Cha-D-Pro-D-Tyr-L-Arg amide (peptide) |
| – | 72 | – | N-acetyl-L-Iq3-D-Cha-L-Aze-D-Tyr-L-Har amide (peptide) |
| 47 | – | – | N-acetyl-L-Arg-L-Cha-D-Pro-D-Tyr-L-Arg amide (peptide) |
| 61 | – | – | N-acetyl-L-Ile-L-Arg-L-Cha-D-Pro-D-Tyr-L-Arg amide (peptide) |
| 59 | – | – | N-acetyl-D-Gln-D-His-L-Cha-D-Pro-D-Tyr-L-Arg amide (peptide) |
| – | 72 | – | N-acetyl-L-Pnp-D-Cha-L-Aze-D-Tyr-L-Har amide (peptide) |
| 45 | – | – | N-acetyl-D-Val-L-Cha-D-Pro-D-Tyr-L-Arg amide (peptide) |
| 44 | – | – | N-acetyl-L-Tyr-D-Pro-L-Cha-D-Pro-D-Tyr-L-Arg amide (peptide) |
| – | 90 | – | N-acetyl-L-Cha-D-Cha-L-Aze-D-Tyr-L-Har amide (peptide) |
| – | 76 | – | N-acetyl-L-Ppd-D-Cha-L-Aze-D-Tyr-L-Har amide (peptide) |
| 51 | – | – | N-acetyl-D-Val-D-His-L-Cha-D-Pro-D-Tyr-L-Arg amide (peptide) |
| 47 | – | – | N-acetyl-L-Ser-L-Ala-L-Cha-D-Pro-D-Tyr-L-Arg amide (peptide) |
| 56 | – | – | N-acetyl-L-Ala-D-Cha-L-Pro-D-Tyr-L-Har amide (peptide) |
| 48 | – | – | N-acetyl-D-Lys-L-Nle-L-Cha-D-Pro-D-Tyr-L-Arg amide (peptide) |
| – | 95 | – | N-acetyl-L-Phg-D-Cha-L-Aze-D-Tyr-L-Har amide (peptide) |
| 55 | – | – | N-acetyl-L-Tyr-L-Cit-L-Cha-D-Pro-D-Tyr-L-Arg amide (peptide) |

| inhibition of the amidase activity of thrombin at 1 µM peptide (human thrombin (human) [1]) [%] | inhibition of the amidase activity of thrombin at 250 nM peptide (human thrombin (human) [1]) [%] | other results | Substance |
| --- | --- | --- | --- |
| – | 77 | – | N-acetyl-D-Phe-D-Cha-L-Aze-D-Tyr-L-Har amide (peptide) |
| – | 74 | – | N-acetyl-L-Tea-D-Cha-L-Aze-D-Tyr-L-Har amide (peptide) |
| – | 80 | – | N-acetyl-L-Nhm-D-Cha-L-Aze-D-Tyr-L-Har amide (peptide) |
| 44 | – | – | N-acetyl-L-Ala-L-Cha-D-Pro-D-Tyr-L-Arg amide (peptide) |
| 58 | – | – | N-acetyl-D-Glu-L-Cha-D-Pro-D-Tyr-L-Arg amide (peptide) |
| – | 75 | – | N-acetyl-L-Dcp-D-Cha-L-Aze-D-Tyr-L-Har amide (peptide) |
| 40 | – | – | N-acetyl-L-Ser-L-Ser-L-Cha-D-Pro-D-Tyr-L-Arg amide (peptide) |
| – | – | Ki (human thrombin (human) [2]): 7 nM | Tranexamic acid-D-Cha-L-Aze-D-Try-L-Har amide (peptide) |
| – | 77 | – | N-acetyl-L-Ala-D-Cha-L-Aze-D-Tyr-L-Har amide (peptide) |
| 47 | – | – | N-acetyl-D-Tyr-L-Cha-D-Pro-D-Tyr-L-Arg amide (peptide) |
| 63 | – | – | N-acetyl-L-Ala-D-Cha-L-Aze-D-Tyr-L-Arg amide (peptide) |
| 51 | – | – | N-acetyl-L-Ser-L-Arg-L-Cha-D-Pro-D-Tyr-L-Arg amide (peptide) |
| – | 89 | – | N-acetyl-L-Nle-D-Cha-L-Aze-D-Tyr-L-Har amide (peptide) |
| – | 76 | – | N-acetyl-L-Trp-D-Cha-L-Aze-D-Tyr-L-Har amide (peptide) |
| – | – | Ki (human thrombin (human) [2]): 3 nM | Trans-4-(guanidinomethyl)cyclohexanecarboxylic acid-D-Cha-L-Aze-D-Try-L-Har amide (peptide) |
